The target in the data set is streptavidin (Streptomyces avidinii, UniProt P22629 25-183). The data set can be described thus: SPR; binding through the 3'-biotin, not the DNA sequence; 10 uM BiotinDNA in water gave about 90 RU; about 70 RU lost on displacement by free biotin (0.01-10.24 mM); SPR: 10 uM BiotinDNA in water, 10 uL/min, immobilized streptavidin; displacement by free biotin in water; temperature and pH not given. The note with it: protein: commercial; chain copies: 4; single strand.
Chain of streptavidin (P22629 25-183): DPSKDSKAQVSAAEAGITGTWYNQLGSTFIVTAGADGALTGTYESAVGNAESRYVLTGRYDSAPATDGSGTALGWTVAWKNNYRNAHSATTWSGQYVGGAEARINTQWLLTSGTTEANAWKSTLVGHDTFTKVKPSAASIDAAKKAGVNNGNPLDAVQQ

AGCAGCCTAAG (ssDNA, 3'-biotin) [BiotinDNA]: the binding result is “binds”.

The values above are taken from article PMC5238629, “Streptavidin-coated gold nanoparticles: critical role of oligonucleotides on stability and fractal aggregation”.
